Target: T1, α4 (3–233) E206R (human, UniProt P78318 3-233, E206R)
T1 sequence (looked up): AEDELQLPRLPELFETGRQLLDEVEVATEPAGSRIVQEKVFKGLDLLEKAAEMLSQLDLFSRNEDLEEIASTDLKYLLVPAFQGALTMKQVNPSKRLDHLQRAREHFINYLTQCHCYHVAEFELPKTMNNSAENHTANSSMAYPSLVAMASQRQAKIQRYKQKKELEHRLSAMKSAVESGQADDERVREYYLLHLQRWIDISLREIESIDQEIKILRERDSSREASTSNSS
Test: pull-down

binding result: binds
B1: GST-tagged nPP2Ac (1–153) (domain or fragment, human, UniProt P67775 1-153, looked up)
chain: MDEKVFTKELDQWIEQLNECKQLSESQVKSLCEKAKEILTKESNVQEVRCPVTVCGDVHGQFHDLMELFRIGGKSPDTNYLFMGDYVDRGYYSVETVTLLVALKVRYRERITILRGNHESRQITQVYGFYDECLRKYGNANVWKYFTDLFDYL

— article PMC3644067 (Nature Communications, 2013)
